# Patent publication US20170190753A1 (LABORATOIRE FRANCAIS DU FRACTIONNEMENT ET DES …, published 2017)
# Molecular target: C3 convertase complex (UniProt P01024 23-1663; P00751 260-764)
# Test: cell-based or functional assay
# Wherever C3 convertase activity % of the control is given: test concentration or dose not given here.
# Sequence of C3 convertase complex (P01024 23-1663, chain 1 of 2): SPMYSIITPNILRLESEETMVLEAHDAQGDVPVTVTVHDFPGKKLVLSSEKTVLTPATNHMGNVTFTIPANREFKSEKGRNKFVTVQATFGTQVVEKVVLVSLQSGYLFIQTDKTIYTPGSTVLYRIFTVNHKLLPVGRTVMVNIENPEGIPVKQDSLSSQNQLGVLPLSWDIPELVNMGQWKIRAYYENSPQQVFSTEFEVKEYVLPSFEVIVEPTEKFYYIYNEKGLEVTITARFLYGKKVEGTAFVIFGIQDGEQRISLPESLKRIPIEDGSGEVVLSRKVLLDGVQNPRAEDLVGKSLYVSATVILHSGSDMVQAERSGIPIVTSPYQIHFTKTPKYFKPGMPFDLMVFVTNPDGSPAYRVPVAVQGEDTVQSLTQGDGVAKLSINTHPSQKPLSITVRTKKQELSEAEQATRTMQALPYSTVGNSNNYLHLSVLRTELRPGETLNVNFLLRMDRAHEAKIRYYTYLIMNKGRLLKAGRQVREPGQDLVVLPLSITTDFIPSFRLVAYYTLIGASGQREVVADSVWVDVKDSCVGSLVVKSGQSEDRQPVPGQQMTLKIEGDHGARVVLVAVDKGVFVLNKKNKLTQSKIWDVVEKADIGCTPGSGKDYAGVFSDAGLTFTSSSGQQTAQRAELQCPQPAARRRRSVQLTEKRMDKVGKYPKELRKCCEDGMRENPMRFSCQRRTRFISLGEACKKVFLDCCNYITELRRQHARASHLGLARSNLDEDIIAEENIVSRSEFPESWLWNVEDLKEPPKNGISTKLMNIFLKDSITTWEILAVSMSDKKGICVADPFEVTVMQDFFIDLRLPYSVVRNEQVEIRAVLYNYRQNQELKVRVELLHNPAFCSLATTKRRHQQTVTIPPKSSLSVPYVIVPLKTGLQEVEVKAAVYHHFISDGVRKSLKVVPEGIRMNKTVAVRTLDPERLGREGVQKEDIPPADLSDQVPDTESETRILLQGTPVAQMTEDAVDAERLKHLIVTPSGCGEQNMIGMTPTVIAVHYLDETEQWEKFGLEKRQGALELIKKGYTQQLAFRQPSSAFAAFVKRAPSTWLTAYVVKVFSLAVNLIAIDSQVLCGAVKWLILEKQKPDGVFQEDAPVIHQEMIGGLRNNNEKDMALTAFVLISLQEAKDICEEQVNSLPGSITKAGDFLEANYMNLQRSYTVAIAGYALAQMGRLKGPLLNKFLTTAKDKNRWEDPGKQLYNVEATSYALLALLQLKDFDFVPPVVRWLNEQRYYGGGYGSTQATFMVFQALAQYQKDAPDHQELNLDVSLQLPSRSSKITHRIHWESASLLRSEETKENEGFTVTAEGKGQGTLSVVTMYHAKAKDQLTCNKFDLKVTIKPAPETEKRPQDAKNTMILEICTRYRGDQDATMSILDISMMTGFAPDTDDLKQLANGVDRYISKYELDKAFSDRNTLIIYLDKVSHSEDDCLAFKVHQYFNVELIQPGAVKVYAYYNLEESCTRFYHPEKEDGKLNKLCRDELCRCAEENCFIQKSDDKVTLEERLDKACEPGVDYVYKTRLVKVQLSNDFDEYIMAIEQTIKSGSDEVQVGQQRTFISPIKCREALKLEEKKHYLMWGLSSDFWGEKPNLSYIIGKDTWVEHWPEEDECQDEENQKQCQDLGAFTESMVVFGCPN
# Sequence of C3 convertase complex (P00751 260-764, chain 2 of 2): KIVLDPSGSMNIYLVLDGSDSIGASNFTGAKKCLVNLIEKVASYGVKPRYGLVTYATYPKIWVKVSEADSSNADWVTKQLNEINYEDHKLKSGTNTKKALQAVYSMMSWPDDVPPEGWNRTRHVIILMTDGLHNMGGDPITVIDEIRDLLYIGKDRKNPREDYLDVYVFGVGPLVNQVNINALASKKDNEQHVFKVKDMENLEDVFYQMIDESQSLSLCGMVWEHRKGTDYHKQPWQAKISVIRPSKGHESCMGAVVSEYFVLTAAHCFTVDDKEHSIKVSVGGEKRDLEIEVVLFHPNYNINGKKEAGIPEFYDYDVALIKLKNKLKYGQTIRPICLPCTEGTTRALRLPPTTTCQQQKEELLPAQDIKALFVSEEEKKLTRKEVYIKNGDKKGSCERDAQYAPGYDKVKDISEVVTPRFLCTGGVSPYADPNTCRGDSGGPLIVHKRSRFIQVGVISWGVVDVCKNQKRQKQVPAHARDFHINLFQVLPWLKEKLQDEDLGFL
Binder,C3 convertase activity % of the control,C3 convertase activity IC50 [µg/mL]
pCEP4-1NT10-19CT20 (other) EDCNELPPRRNTEILTGSWSDQTYPEGTQAIYKCRPGYRSLGNVIMVCRKGEWVALNPLRKCQKRPCGHPGDTPFGTFTLTGGNVFEYGVKAVYTCNEGYQLLGEINYRECDTDGWTNDIPICEVVKCLPVTAPENGKIVSSAMEPDREYHFGQAVRFVCNSGYKIEGDEEMHCSDDGFWSKEKPKCVEISCKSPDVINGSPISQKIIYKENERFQYKCNMGYEYSERGDAVCTESGWRPLPSCEEKSCDNPYIPNGDYSPLRIKHRTGDEITYQCRNGFYPATRGNTAKCTSTGWIPAPRCTLKPCDYPDIKHGGLYHENMRRPYFPVAVGKYYSYYCDEHFETPSGSYWDHIHCTQDGWSPAVPCLRKCYFPYLENGYNQNHGRKFVQGKSIDVACHPGYALPKAQTTVTCMENGWSPTPRCIRVKTCSKSSIDIENGFISESQYTYALKEKAKYQCKLGYVTADGETSGSITCGKDGWSAQPTCIKSCDIPVFMNARTKNDFTWFKLNDTLDYECHDGYESNTGSTTGSIVCGYNGWSDLPICYERECELPKIDVHLVPDRKKDQYKVGEVLKFSCKPGFTIVGPNSVQCYHFGLSPDLPICKEQVQSGASGCGPPPPIDNGDITSFPLSVYAPASSVEYQCQNLYQLEGNKRITCRNGQWSEPPKCLHPCVISREIMENYNIALRWTAKQKLYSRTGESVEFVCKRGYRLSSRSHTLRTTCWDGKLEYPTCAKRGGSGHHHHHH,1 % of the control,6.05
pCEP4-1NT8-19CT20 (other) EDCNELPPRRNTEILTGSWSDQTYPEGTQAIYKCRPGYRSLGNVIMVCRKGEWVALNPLRKCQKRPCGHPGDTPFGTFTLTGGNVFEYGVKAVYTCNEGYQLLGEINYRECDTDGWTNDIPICEVVKCLPVTAPENGKIVSSAMEPDREYHFGQAVRFVCNSGYKIEGDEEMHCSDDGFWSKEKPKCVEISCKSPDVINGSPISQKIIYKENERFQYKCNMGYEYSERGDAVCTESGWRPLPSCEEKSCDNPYIPNGDYSPLRIKHRTGDEITYQCRNGFYPATRGNTAKCTSTGWIPAPRCTLKPCDYPDIKHGGLYHENMRRPYFPVAVGKYYSYYCDEHFETPSGSYWDHIHCTQDGWSPAVPCLRKCYFPYLENGYNQNYGRKFVQGKSIDVACHPGYALPKAQTTVTCMENGWSPTPRCIRVKTCSKSSIDIENGFISESQYTYALKEKAKYQCKLGYVTADGETSGSITCGKDGWSAQPTCIKSGASGCGPPPPIDNGDITSFPLSVYAPASSVEYQCQNLYQLEGNKRITCRNGQWSEPPKCLHPCVISREIMENYNIALRWTAKQKLYSRTGESVEFVCKRGYRLSSRSHTLRTTCWDGKLEYPTCAKRGGSGHHHHHH,0 % of the control,493
